In the Human Domainome abundance scans (Beltran et al. 2025):

B1: Protein maelstrom homolog, residues 3 to 71; numbered along this chain, Q96JY0 (parent)
chain: NRKASRNAYYFFVQEKIPELRRRGLPVARVADAIPYCSSDWALLREEEKEKYAEMAREWRAAQGKDPGP

Variants of: B1
Assay: abundance fitness (aPCA) (normalised: wild type 0, dead -1); higher = more abundant; growth selection in yeast, the domain comes from the species named
Conditions: Homo sapiens

Abundance fitness: each site, then its substitutions
R21: L -0.024; G 0.058; E -0.496
P35: I -0.524; K 0.049; M -0.18; E -0.289; Q -0.451; L -0.713; A -0.435; H 0.058; D -0.181; G -0.224; T -0.554; F -0.862; S -0.628; W -0.756; Y -1.07; V -0.78; N -0.266
A33: V -0.541; T -0.619; F -0.808; D -0.62; S -0.588; E -0.725; G -0.098; Q -1.05; Y -0.713; H -0.279; C -0.599; L -0.47; M -0.707; W -0.665; R -0.83; P -0.654; K -0.714
L25: F -0.229
R22: N -0.154; C -0.791; P -0.763; H -0.036; K 0.162; T -0.242; W -0.557; S -0.046; L -0.11; V -0.738; A 0.006; M -0.261; Y -0.583; D -0.079; G -0.14; I -0.732
D40: G -0.856; N -0.007; Y -0.48; V -0.036
G24: D -0.311; A -0.398; S -0.773
E46: F -0.215; K 0.012; T -0.188; N -0.09; Y -0.339; A -0.23; L -0.139; D -0.266; C -0.046; P 0.066; R -0.14; H -0.101; G -0.031; M -0.134; I -0.315; V -0.38
I34: C -0.203; M 0.069; A -0.133; G -0.198; T -0.19; E -0.113; H -0.307; N -0.06; Q -0.25; Y -0.064; V -0.137; D 0.113; W -0.04; F 0.091; L -0.17; R -0.148; S -0.229; K 0.406
V27: N -0.02; M -0.511; C -0.026; W -0.584; D -0.738; R -0.742; E -0.831; K -0.744; F -0.159; G -0.594; I -0.319; T -0.235; P -0.73; Q -1.08; L -0.329; S -0.104
R23: H -0.467
C37: L -0.244; R -0.731; A -0.19; E -0.636; Y -0.741; I -0.229; Q -0.636; K -0.719; V -0.137; M -0.291; S -0.561; G -0.557; T -0.434; F -0.55
A28: M -0.319; S -0.324
E54: C -0.161; A -0.123; D 0.133
L43: F -0.473; A 0.106; R 0.158; S 0.094; E 0.102; N 0.252; K -0.02; W -0.287; C -0.176; M -0.098; G 0.064; T -0.108; H 0.078; I -0.16; P -0.477; Y 0.086; Q 0.151; D 0.277; V 0.006
A31: L -0.291; E 0.131; K 0.161; Q -0.21; Y -0.178; R -0.06; W -0.286; P -0.019; C 0.085; S -0.047; V -0.1; G -0.099; I -0.603
A42: P -0.326; G 0.058; I -0.234; S 0; N 0.157; E 0.005; W -0.236; K 0.016; H -0.03; R -0.059; Y -0.101; M -0.083; F -0.081; Q -0.147; D 0.015; L -0.082; C -0.177
E50: D -0.232
S39: F -0.016; C -0.174; Q 0; E -0.073; Y 0.041; M 0.129; V -0.164; T 0.132; H 0.109; P 0.093; A -0.058; L -0.137; W 0.022; G 0.13; D 0.07
S38: V 0.073; M -0.154; G 0.193; Q 0.155; R 0.171; C -0.337; L -0.132; Y -0.06; F -0.223
R45: F -0.502; I -0.431; V -0.151; D -0.219; Y -0.428; E -0.003; C 0.016; L -0.114; Q 0.027; K -0.023; H -0.072; A -0.001; N 0.108; W -0.511; P 0.147; G -0.111; M -0.057
V30: P 0.113; H -0.17; Q -0.567; E -0.272; C -0.174; A -0.286; W -0.225; D -0.518; F -0.226; S -0.238; K -0.514; R -0.614; M -0.164; N -0.559; Y -0.09; G -0.607; I -0.652
A53: N -0.144; W -0.097; D -0.082; M -0.322; S 0.082; I -0.263; E 0.13; Q -0.194; P -0.589; G -0.106; T -0.15; K -0.226; R 0.035; C 0.043; V -0.006; Y 0.265; H 0.037
E48: D 0.06
L44: F -0.443; M -0.38; D -0.553; I -0.482; H -1; Q -0.168; V -0.156; R -0.802; P -0.751; E -0.421; G -0.864; S -0.205; Y -1.09; T -0.227; K -0.568; C -0.343; A -0.254
K51: R -0.378; P -0.453
R29: L -0.032; I 0.139; H -0.113; Y -0.101; M -0.09; K 0.178; G 0.052; F -0.478; N 0.105; D 0.148; W -0.47; E 0.275; S 0.221; Q 0.041; C 0.118; P -1.09; V 0.049
D32: M -0.835; A -0.421; G -0.794; E -0.055; H -0.535; T -0.257; Y -1.09; S -0.817; K -0.869; V -0.952; F -0.956; Q -0.616; R -0.596; P -0.959; W -1.07; L -1.05; C -0.735
L20: R -0.959; T -0.62; V -0.677; W -0.673; Q -0.797; S -0.844
P26: R -0.431
W41: P -0.572; S -0.888; H -1.1; A -0.553; Q -1.1; F -0.284; I -0.968; R -0.572; G -0.784; K -0.622; L -0.941; Y -0.394; N -0.706; V -0.682; M -0.886; E -0.813; T -0.682
